In experiment [1] the target is T1, full length human DLL4 on overexpressing CHO or HEK293 cells (human, UniProt Q9NR61 27-685).
T1 construct: also called CHO-hDLL4; HEK293-hDII4
Description: FMAT, hNotch1/Fc on CHO-hDLL4, periplasmic extract. An excerpt: (§1) All calculations are based on the FL1 total signal which comprises the average of the fluorescence per well times the number of counts per well.

Experiment [2] has as its target T2, full length mouse DLL4 on overexpressing CHO or HEK293 cells (mouse, UniProt Q9JI71 27-686).
T2 construct: whole, on cells; also called CHO-mDLL4; mDLL4
Description: FMAT, hNotch1/Fc on CHO-mDLL4, periplasmic extract.
Description: as §1

Experiment [3] concerns the target T2, full length mouse DLL4 on …. Description: FMAT competition: labelled hNotch1/Fc on CHO-mDLL4 cells.
Description: as §1

The next experiment has as its target T3, human DLL1 (Alexis) (human, UniProt O00548 18-545, limits assumed).
T3 construct: also called hDLL1; rhDLL1
T3 sequence (looked up): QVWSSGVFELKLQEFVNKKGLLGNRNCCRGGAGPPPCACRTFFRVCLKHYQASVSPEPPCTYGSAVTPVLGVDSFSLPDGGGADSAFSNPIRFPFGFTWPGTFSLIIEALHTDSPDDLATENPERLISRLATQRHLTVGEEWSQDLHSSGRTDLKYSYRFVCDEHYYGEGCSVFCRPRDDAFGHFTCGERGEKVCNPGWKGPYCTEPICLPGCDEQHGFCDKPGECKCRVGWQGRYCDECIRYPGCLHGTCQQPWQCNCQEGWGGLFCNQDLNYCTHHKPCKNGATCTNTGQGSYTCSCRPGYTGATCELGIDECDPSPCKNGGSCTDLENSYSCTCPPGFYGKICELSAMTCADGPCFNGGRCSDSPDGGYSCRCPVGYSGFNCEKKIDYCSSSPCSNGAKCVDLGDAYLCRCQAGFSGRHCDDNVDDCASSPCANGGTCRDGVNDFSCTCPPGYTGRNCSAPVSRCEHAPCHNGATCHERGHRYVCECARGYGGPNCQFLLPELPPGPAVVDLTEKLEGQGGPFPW
Description: binding ELISA, coated rhDLL1.

In the next experiment the target is T4, human Jagged-1 (Alexis) (human, UniProt P78504 34-1067, limits assumed).
T4 construct: also called hJag-1; hJAG1
Description: binding ELISA, coated rhJagged-1. For orientation: ELISA stands for enzyme-linked immunosorbent assay.

The target of experiment [4] is T5, recombinant human DLL4, C-terminally His-tagged extracellular domain (R&D Systems) (human, UniProt Q9NR61 25-522, biotinylated where used in competition ELISA, AlphaScreen and on SA chips).
T5 construct: also called rhDLL4; hDLL4; not shown: C-terminal His tag
T5 sequence (Q9NR61 25-522): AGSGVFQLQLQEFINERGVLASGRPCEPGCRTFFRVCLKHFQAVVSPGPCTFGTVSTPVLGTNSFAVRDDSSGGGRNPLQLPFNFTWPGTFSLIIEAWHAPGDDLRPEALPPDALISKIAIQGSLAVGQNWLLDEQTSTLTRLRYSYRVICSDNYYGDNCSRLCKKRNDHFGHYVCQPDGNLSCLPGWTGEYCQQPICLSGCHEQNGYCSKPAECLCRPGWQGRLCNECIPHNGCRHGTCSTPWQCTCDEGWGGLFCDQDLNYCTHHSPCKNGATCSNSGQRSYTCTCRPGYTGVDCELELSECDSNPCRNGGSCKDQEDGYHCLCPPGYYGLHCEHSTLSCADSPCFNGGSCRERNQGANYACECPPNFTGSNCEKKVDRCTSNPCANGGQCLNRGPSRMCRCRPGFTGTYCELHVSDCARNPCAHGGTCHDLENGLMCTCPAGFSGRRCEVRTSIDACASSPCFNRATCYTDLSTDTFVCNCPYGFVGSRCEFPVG
Description: competition ELISA, periplasmic extract.

The target in experiment [5] is T5, recombinant human DLL4, C-terminally …. Description: hDLL4/hNotch1-Fc AlphaScreen, periplasmic extract. As to the method:
Periplasmic extracts are screened in a human DII4/human Notch1 AlphaScreen assay to assess the blocking capacity of the expressed VHHs. Human DII4 is biotinylated using biotin (Sigma, St Louis, Mo., USA) and biotinamidohexanoic acid 3-sulfo-N-hydroxysuccinimide ester sodium salt (Sigma, St Louis, Mo., USA). […] To evaluate the neutralizing capacity of the VHHs, dilution series of the periplasmic extracts are pre-incubated with biotinylated human DII4. To this mixture, the acceptor beads and the streptavidin donor beads are added and further incubated for 1 hour at room temperature. Fluorescence is measured by reading plates on the Envision Multilabel Plate reader (Perkin Elmer, Waltham, Mass., USA) using an excitation wavelength of 680 nm and an emission wavelength of 520 nm.

20 molecules from patent US20110195494A1 (Boehringer Ingelheim, published 2011) can be followed below.

T2 sequence (Q9JI71 27-686): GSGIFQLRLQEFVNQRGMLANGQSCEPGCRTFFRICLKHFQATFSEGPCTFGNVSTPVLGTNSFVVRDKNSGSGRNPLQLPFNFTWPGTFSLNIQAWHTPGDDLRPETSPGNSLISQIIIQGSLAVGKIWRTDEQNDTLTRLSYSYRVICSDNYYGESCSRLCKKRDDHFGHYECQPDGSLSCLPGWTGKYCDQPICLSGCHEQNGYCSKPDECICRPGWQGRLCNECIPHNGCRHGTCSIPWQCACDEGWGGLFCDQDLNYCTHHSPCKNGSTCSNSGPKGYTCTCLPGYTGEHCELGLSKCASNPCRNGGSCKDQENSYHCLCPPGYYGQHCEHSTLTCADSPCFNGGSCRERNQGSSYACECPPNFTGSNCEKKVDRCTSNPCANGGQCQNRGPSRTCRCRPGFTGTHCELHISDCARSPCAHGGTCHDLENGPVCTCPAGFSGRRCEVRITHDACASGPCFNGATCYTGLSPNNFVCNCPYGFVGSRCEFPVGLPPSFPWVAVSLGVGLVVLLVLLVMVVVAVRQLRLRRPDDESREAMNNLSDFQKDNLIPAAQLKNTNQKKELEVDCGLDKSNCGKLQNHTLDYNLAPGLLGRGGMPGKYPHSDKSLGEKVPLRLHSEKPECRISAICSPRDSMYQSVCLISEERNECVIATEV
T1 sequence (Q9NR61 27-685 limits assumed): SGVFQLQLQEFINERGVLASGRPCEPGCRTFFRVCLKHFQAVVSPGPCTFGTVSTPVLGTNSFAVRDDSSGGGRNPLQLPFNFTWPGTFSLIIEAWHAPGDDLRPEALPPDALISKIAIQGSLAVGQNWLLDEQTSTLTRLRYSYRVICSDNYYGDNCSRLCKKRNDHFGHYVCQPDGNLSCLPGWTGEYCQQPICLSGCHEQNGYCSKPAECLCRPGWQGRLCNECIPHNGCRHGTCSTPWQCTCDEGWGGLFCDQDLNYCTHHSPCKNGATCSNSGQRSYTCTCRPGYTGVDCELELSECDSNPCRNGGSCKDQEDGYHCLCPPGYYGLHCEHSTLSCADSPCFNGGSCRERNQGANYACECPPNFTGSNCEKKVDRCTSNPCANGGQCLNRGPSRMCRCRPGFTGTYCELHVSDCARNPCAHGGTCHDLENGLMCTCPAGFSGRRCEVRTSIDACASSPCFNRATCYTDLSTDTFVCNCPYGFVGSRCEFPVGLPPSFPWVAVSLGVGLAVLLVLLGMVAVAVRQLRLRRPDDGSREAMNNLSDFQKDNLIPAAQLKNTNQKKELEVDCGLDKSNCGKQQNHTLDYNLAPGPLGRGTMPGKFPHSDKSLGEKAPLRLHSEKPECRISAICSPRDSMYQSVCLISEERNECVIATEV

B1: DLLBII83G01 (VHH)
VHH: EVQLVESGGGLVQAGGSLRLSCAASGRTFSNYIMGWFRQAPGKEREFVAGISRYADYTGYADSVKGRFTISRDNVKNTVYLRMNSLKPDDTAVYYCAANEGYCSGYGCYEDSGQYDYWGQGTQVTVSS
notes: tested as periplasmic extract; also called DLLBII83G1; not shown: C-terminal c-myc tag and His6 tag
For the molecule B1, the “FMAT hDLL4 % inhibition” value in experiment [1] came to 87%. In experiment [2], the “FMAT mDLL4 % inhibition” value is 93%. The “IC50 (read off the curve)” value in experiment [3] is approximately 50 nM.

B2: DLLBII015 (VHH)
VHH: EVQLVESGGGLVQPGGSLRLSCAASGFTIGSYDMSWVRRSPGKGPEWVSAINSGGGSTYYADYVKGRFTISRDNAKNTLYLQMNSLKPEDTAVYYCAADRYIWARQGEYWGAYAYDYWGQGTQVTVSS
notes: not shown: C-terminal c-myc tag and (His)6 tag
For the molecule B2, the binding result with human DLL1 (Alexis) and in the experiment with human Jagged-1 (Alexis) was “no binding (tested: 1e-6 M)” in each case.

B3: DLLBII133A09 (VHH)
VHH: EVQLVESGGGLVQPGGSLRLSCAASGFTFGSYDMSWVRRSPGKGPEWVSAINSGGGSTYYADYVKGRFTISRDNAKNTLYLQMNSLKPEDTAVYYCAADRYIWARQGEYWGAYAYDYWGQGTQVTVSS
notes: as for B2
As to B3, the binding result with human DLL1 (Alexis) and with human Jagged-1 (Alexis) was “no binding (tested: 1e-6 M)” each time.

B4: DLLBII136C07 (VHH)
VHH: EVQLVESGGGLVQPGGSLRLSCAASGFTFGSYDMSWVRRSPGKGPEWVSSINSGGGSTYYADYVKGRFTISRDNAKNTLYLQMNSLKPEDTAVYYCAADRYIWARQGEYWGAYEYDYWGQGTQVTVSS
notes: as for B2
On to B4, for which the binding result with human DLL1 (Alexis) and with human Jagged-1 (Alexis) was “no binding (tested: 1e-6 M)” in each case.

B5: DLLBII133G05 (VHH)
VHH: EVQLVESGGGLVQPGGSLRLSCAASGFTFGSYDMSWVRRSPGKGPEWVSAINSGGGSTYYTDYVKGRFTISRDNAKNTLYLQMNSLKPEDTAVYYCAADRYIWARQGEYWGAYAYDYWGQGTQVTVSS
notes: as for B2
Turning to B5, the binding result in the experiment with human DLL1 (Alexis) and with human Jagged-1 (Alexis) was “no binding (tested: 1e-6 M)” in each case.

B6: DLLBII17C01 (VHH)
VHH: EVQLVESGGGLVQAGGSLRLSCAASGFTFDDYPIGWLRQAPGKEREGVSCISSSDDSTYYADSVKGRFTISSNNAKNTVYLQMNSLKPEDTAVYYCAVRLFSGGCAVVAGTSWADFGSSGQGTQVTVSS
notes: tested as periplasmic extract; also called DLLBII17C1; not shown: C-terminal c-myc tag and His6 tag
As for B6, in experiment [4], the “ELISA hDLL4 % inhibition” value turned out to be 82%. For the same molecule, in experiment [5], the “Alpha Screen hDLL4 % inhibition” value came to 84%.

B7: DLLBII104G01 (VHH)
VHH: EVQLVESGGGLVQAGGSLRLSCAASGFTFDDYAIGWFRQAPGKEREGVSCISSSDGSTYYADSVKGRFTISSDNAKNTVYLQMNSLKPEDTAVYYCATAWCDSSWYRSFVGYWGQGTQVTVSS
notes: also called DLLBII104G1; 104G1; not shown: C-terminal c-myc tag and His6 tag
As for B7, in experiment [1], the “FMAT hDLL4 % inhibition” value is 94%. For the same molecule, in experiment [2], the “FMAT mDLL4 % inhibition” value was 86%. Also, the “IC50 (read off the curve)” value in experiment [3] is 64 to 70 nM.

B8: DLLBII8A09 (VHH)
VHH: EVQLVESGGGLVQPGGSLRLSCAASGFTLDYYNIGWFRQAPGKEREWVSCINSSDGSTYYADSVKGRFTISRDNAKNTVYLQMNSLKPEDTAVYYCAAPFAYYSNLCGVNGYDYWGQGTQVTVSS
notes: also called DLLBII08A09; not shown: C-terminal c-myc tag and His6 tag
B8: the “ELISA hDLL4 % inhibition” value in experiment [4] came out at 96%.

B9: DLLBII7B05 (VHH)
VHH: EVQLVESGGGLVQAGGSLRLSCAASGFALDYYAVGWFRQAPGKEREGVSCISSRGGSTFYADSVKGRFTTSRNNAKNTVYLQMNSLKPEDTAVYYCAAHPLQNCCGGSAYASPEAVYEYWGQGTQVTVSS
notes: also called DLLBII07B05; DLLBII7B5; not shown: C-terminal c-myc tag and His6 tag
B9: in experiment [4], the “ELISA hDLL4 % inhibition” value came to 84%.

B10: DLLBII19F12 (VHH)
VHH: EVQLVESGGGLVQAGGSLRLSCTASGSTFTSYAMGWYRQAPGKQRELVAAISSDDSTYYADCVKGRFTISRDNAKNTVYLQMNSLKPEDTAVYYCNAPHSDYDEEAPSDFGSWGQGTQVTVSS
notes: tested as periplasmic extract; not shown: C-terminal c-myc tag and His6 tag
Take B10: the “ELISA hDLL4 % inhibition” value in experiment [4] amounted to 98%. Moreover, the “Alpha Screen hDLL4 % inhibition” value in experiment [5] was 98%.

B11: DLLBII17F10 (VHH)
VHH: EVQLVESGGGLVQAGGSLRLSCASSGRTLLNYAMGWFRQAPGKEREFVSGINWSGGSTYYADSVKGRFTISRDNAENTVYLHMNSLKPEDTAVYYCAAAHDNYWFTDDSLGRGLKYWGQGTQVTVSS
notes: not shown: C-terminal c-myc tag and His6 tag
Regarding B11, the “ELISA hDLL4 % inhibition” value in experiment [4] turned out to be 98%. Further, in experiment [5], the “Alpha Screen hDLL4 % inhibition” value amounted to 88%.

B12: DLLBII8C11 (VHH)
VHH: EVQLVESGGGLVQAGGSLRLSCAASGFTFDDYAIGWFRQAPGKEREGVSCISSHDRTTYYADSVKGRFTISSDNAKNTVYLQMNSLKPEDTAVYYCAADPLVCGYNDPRLADYWGQGTQVTVSS
notes: also called DLLBII08C11; not shown: C-terminal c-myc tag and His6 tag
Take B12: the “ELISA hDLL4 % inhibition” value in experiment [4] was determined as 57%.

B13: DLLBII19D10 (VHH)
VHH: EVQLVESGGGLVQAGDSLRLSCAASGRTVGSYDMSWVRQGPGKEREWVSSINSGVGKTYYADSVKGRFTIFRDNAKNMVYLQMNNLKPEDTAVYYCATEMDGSRYVEGQGTQVTVSS
notes: as for B10
As to B13, the “ELISA hDLL4 % inhibition” value in experiment [4] amounted to 98%. For the same molecule, the “Alpha Screen hDLL4 % inhibition” value in experiment [5] turned out to be 85%.

B14: DLLBII17B03 (VHH)
VHH: EVQLVESGGGLVQPGGSLRLSCAASGFTFENYALGWFRQAPGKEREWVSCISSSDGTTYYADSVKGRFTISRDNVKNTVYLQMNRLKPEDTAIYYCALSLGSSWCAYDYWGQGTQVTVSS
notes: tested as periplasmic extract; also called DLLBII17B3; not shown: C-terminal c-myc tag and His6 tag
As for B14, the “ELISA hDLL4 % inhibition” value in experiment [4] amounted to 76%. Moreover, the “Alpha Screen hDLL4 % inhibition” value in experiment [5] stood at 77%.

B15: DLLBII33C05 (VHH)
VHH: EVQLVESGGGLVQAGGSLRLSCAASGFTLDNYVIGWFRQAPGKEREEVSCISSSGGSTDYLDSVKGRFTISRDNAKNTVYLQMNSLKPEDTAVYYCAADSLPCYYDKMVYDYWGQGTQVTVSS
notes: tested as periplasmic extract; also called DLLBII33C5; not shown: C-terminal c-myc tag and His6 tag
As for B15, the “ELISA hDLL4 % inhibition” value in experiment [4] came to 86%. Further, in experiment [5], the “Alpha Screen hDLL4 % inhibition” value worked out at 75%.

B16: DLLBII19F04 (VHH)
VHH: EVQLVESGGGLVQAEGSLRLSCAASGSTFSTYAMAWYRQAPGKQRELVAGISFDGSTHYAESVKGRFTISRDDAKNTVSLQMNSLKPEDAAVYYCYSVHPSTGFGSWGQGTQVTVSS
notes: also called DLLBII19F4; not shown: C-terminal c-myc tag and His6 tag
For B16, the “ELISA hDLL4 % inhibition” value in experiment [4] came out at 98%. Besides, the “Alpha Screen hDLL4 % inhibition” value in experiment [5] came out at 95%.

B17: DLLBII5B11 (VHH)
VHH: EVQLVESGGGLVQPGGSLRLSCAISGFTLDLHVIGWLRQAPGKEREWVSCISSSDGSTYYADSVKGRFTISRDNAKNTVYLQMNSLKPEDTAVYYCAAPWDSWYCGIGNDYDYWGQGTQVTVSS
notes: also called DLLBII05B11; not shown: C-terminal c-myc tag and His6 tag
Consider B17, for which, in experiment [4], the “ELISA hDLL4 % inhibition” value is 98%.

B18: DLLBII17G10 (VHH)
VHH: EVQLVESGGGLVQAGGSLRLSCAASGSTFSSYAMGWYRHQAPGKQRELVAAISSDGSTHYADSVKGRFTISRDNAKNTMYLQMNSLKPEDTAVYYCNTKTFGSNWYDDYWGQGTQVTVSS
notes: as for B10
B18: the “ELISA hDLL4 % inhibition” value in experiment [4] is 93%. The “Alpha Screen hDLL4 % inhibition” value in experiment [5] turned out to be 82%.

B19: DLLBII6B11 (VHH)
VHH: EVQLVESEGGLVQAGGSLRLSCAASGSTFSSYAMGWYRQAPGKQRELVAVISNGGITNYPNSVKGRFTISRDNAKNTVYLQMNSLKPEDTAVYYCFYSGSYYYPTDVHEYDYWGQGTQVTVSS
notes: also called DLLBII06B11; not shown: C-terminal c-myc tag and His6 tag
In the case of B19, the “ELISA hDLL4 % inhibition” value in experiment [4] stood at 98%.

B20: DLLBII28B06 (VHH)
VHH: EVQLVESGGGLVQAGGSLRLSCAASGSTFSTYAMGWYRQDPGNQRELVAAISSDGSTHYADSVKGRFTISRDNAKNTVYLQMNSLKPEDTAVYYCYAPVKVAGLEYDYWGQGTQVTVSS
notes: tested as periplasmic extract; also called DLLBII28B6; not shown: C-terminal c-myc tag and His6 tag
In the case of B20, in experiment [4], the “ELISA hDLL4 % inhibition” value amounted to 23%. For the same molecule, the “Alpha Screen hDLL4 % inhibition” value in experiment [5] came to 54%.
